Test results from US8835609B2, “Antigen binding sites to non-functional oligomeric P2X7 receptors and methods of use thereof” (Biosceptre International Limited, priority 2009, dated 2014).

Experiments:
[1] = test system: Colo205 cells; experiment: ApoOne apoptosis assay, caspase 3/7 activity; format: cell-based, human; details: for Caspase 3/7 activation: COLO205, 3 day time course, antibodies up to 40 ug/mL
Description: FIG. 11. Mechanism of Cell Death Induced by 2F6 with Caspase 3/7 Activation Associated with Reactivation of Apoptosis. […] In contrast, the absence of drug or antibody has no effect (cells only column).
A mode of action by which the 2F6 is able to inhibit cell growth was determined by an ApoOne apoptosis assay in which caspase 3/7 activity was measured in combination with cell growth through the Cell Titer Blue assay. Colo205 cells were grown in a 3-day growth assay with increasing 2F6 from 0-40 ug/mL. The gemcitabine positive control was added to establish the degree of apoptosis that may be elicited by the presence of bound antibody.

[2] = test system: Lewis Lung (LL) tumour; experiment: Lewis Lung (LL) syngeneic xenograft model, lung metastases; format: in vivo, mouse; details: 5 mL/kg daily; Day 11
Description: Dosing occurred every 3 days at antibody concentrations of 1 or 10 mg/kg i.v. or with PBS for treatment control or Sorafenib at 5 mL/kg daily as a positive control in the Lewis Lung model. Mice were randomised into equal groups of 10 mice, based on tumour volume on Day 0 of the studies.
Mice were anaesthetised for blood collection and euthanised by exsanguination via terminal cardiac bleed 48 hours post-final dose, on Days 11 or 14 post-initial treatment.
The lungs were excised from all mice. Lung surface metastases were counted and were categorised according to size: small (<1 mm), medium (≧1 mm and <3 mm) and large (≧3 mm). Excised lungs were preserved in 10% neutral buffered formalin.
The syngeneic Lewis Lung model was used with additional control groups. Besides the PBS control group of ten mice (Group 1), a positive control group using daily Sorafenib at 5 mL/kg was included (Group 5) along with antibody treatment groups consisting of sheep affinity purified E200-300 polyclonal antibody at 10 mg/kg (Group 2), 2F6-hIgG1 at 1 mg/kg (Group 3) and 2F6-hIgG1 at 10 mg/kg (Group 4).

[3] = target: T1, E200-300 epitope of P2X7 receptor (Homo sapiens, UniProt Q99572, INS205RNILPGGA); experiment: ELISA against immobilised antigen E200-300; format: binding
T1 construct: added C-terminal Cys (attachment point for BSA, DT, ovalbumin or KLH via MCS); purchased Chiron Mimotopes; host or cells: solid phase peptide synthesis
T1 sequence (Q99572 with tags, fused parts or gaps isoform Q99572-5 INS205RNILPGGA): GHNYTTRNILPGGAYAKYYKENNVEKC
Description: FIG. 18. ELISA of IgM, IgG2a and Fab Leads. Lead Affinity Matured 2F6-Derived Fab ELISA (scale 0.01-12.5 ug/mL for IgM and IgG2a; 0.1-100 ug/mL for Fabs).
The 2F6 VH and VL gene fragments were amplified and assembled into an E. coli expression/secretion vector. Both the 2F6 scFv and Fab were transformed into E. coli and expression of the gene construct induced. The E. coli cultures were harvested 5 hours post induction and the scFv and Fab analysed for binding using ELISA and Biacore against immobilised antigen E200-300.
Mutagenesis of the 2F6 scFv was introduced through a combination of error prone PCR, NNK randomisation and sequence length variation of HCDR3. A mutated library in the phagemid vector was of order 1×10^7. Screening of the library for higher affinity mutants employed a combination of phage display with filter expression assays using biotinylated E200-300 antigen. A selection of higher affinity scFv lead phage clones underwent small scale expression of soluble antibody fragments with affinities measured using ELISA and Biacore.

[4] = target: T2, non-functional receptors on live COLO-205 cells (Homo sapiens, UniProt Q99572); experiment: Flow cytometry binding to live COLO205 cells; format: cell-based; details: FLAG-tagged Fabs; anti-FLAG secondary
T2 construct: endogenous in cells; host or cells: COLO-205 (human colorectal tumour cells)
T2 sequence (Q99572 1-595): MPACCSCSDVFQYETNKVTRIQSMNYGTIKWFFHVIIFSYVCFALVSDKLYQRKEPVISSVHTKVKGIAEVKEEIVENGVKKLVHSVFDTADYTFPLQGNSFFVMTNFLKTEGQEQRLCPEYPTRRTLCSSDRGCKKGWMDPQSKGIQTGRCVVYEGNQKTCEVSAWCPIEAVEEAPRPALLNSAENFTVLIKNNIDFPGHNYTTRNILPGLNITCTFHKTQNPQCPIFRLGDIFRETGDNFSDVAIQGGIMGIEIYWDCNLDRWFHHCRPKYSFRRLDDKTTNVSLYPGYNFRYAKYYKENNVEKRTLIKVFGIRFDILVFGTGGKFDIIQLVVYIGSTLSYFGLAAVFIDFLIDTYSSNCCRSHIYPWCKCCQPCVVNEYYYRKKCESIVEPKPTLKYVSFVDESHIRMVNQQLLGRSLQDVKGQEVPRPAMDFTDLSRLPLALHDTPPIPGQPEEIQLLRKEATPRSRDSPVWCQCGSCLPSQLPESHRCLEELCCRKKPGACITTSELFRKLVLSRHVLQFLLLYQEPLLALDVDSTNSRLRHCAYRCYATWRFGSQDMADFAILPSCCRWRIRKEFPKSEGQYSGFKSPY
Text: (§1) FIGS. 19(a)-(b). (a) Flow cytometry results for binding recombinant Fabs to live colorectal COLO205 tumour cells. A Sigma anti-FLAG secondary antibody (#F4049) was used to detect the binding of the primary antibodies. WT 2F6 Fab bound weakly over the same concentration range. The EC50 for the four lead Fabs is very similar to the values obtained from ELISA measurements. (b) Very similar improved binding results were obtained for prostate PC3 cells.
(§2) Flow cytometry was used to measure the enhanced binding of selected affinity matured recombinant Fabs in human COLO-205 and PC3 cell lines over that of the starting 2F6 sequence. Recombinant FLAG-tagged Fabs were bound to cells and detected using a Sigma F4049 murine monoclonal anti-FLAG antibody conjugated to FITC used at a concentration of 1:75. Affinity purified sheep 200-300 antibody was examined for direct comparison with the 2F6 mIgG2a WT by Flow to PC3 cells.

[5] = test system: prostate PC3, colon COLO205, breast MDAMB231, melanoma A375 and breast MCF7; experiment: Cell Titer Blue assay of cell growth, range of cancer cell lines; format: cell-based; details: for cell growth: 3-day or 5-day growth, antibody 0-40 ug/mL
Description: (§3) FIGS. 9(a)-(d). (a) In Vitro Cell Inhibition Assays. […] Growth over 5 days is inhibited to a greater extent than over 3 days. The growth data is plotted relative to the control growth curves obtained using the control IgM antibody.
(§4) Cells were seeded at appropriate density and grown over a 3-day or 5-day period to reach a level close to confluence at the end of the test period in the presence of control antibodies and in the presence of test antibodies, either IgM or IgG2a types of 2F6 over the concentration range 0-40 ug/mL. Testing of cell line growth was conducted with seed densities ranging from 100-2000 cells/well.

[6] = test system: COLO205; experiment: Cell Titer Blue cell growth assay, COLO205; format: cell-based, human
Description: as §3, §4

[7] = test system: MCF-7 breast cancer cell line; experiment: Cell Titer Blue cell growth inhibition with peptide blocking, MCF-7; format: cell-based; details: for growth inhibition after pre-incubation of antibody with soluble peptide epitope: 3 days
Description: FIG. 10. Blocking Reaction in Cell Killing Assay. The Cell Titer Blue cell growth inhibition assay is used over three day cell growth with MCF-7 breast cancer cell line. Note the viable control cells in the right column have no antibody or peptide. The left hand column is the signal derived from the cells incubated with 10 ug/mL 2F6 IgM antibody containing 500 ug/mL peptide epitope (E200-300 epitope described as 200/300 in Figure), sufficient to block the cell growth inhibition evidenced by the data in the three central columns that show growth inhibition is not affected by the presence of 50 ug/mL, 5 ug/mL or 0 ug/mL peptide respectively.
as §4

[8] = test system: MCF-7 cells; experiment: Direct cell killing, confocal microscope images; format: cell-based; details: 20 ug/mL; 24 hours exposure
Description: FIG. 12. Direct Cell Killing by 2F6 IgM. Confocal microscope images of MCF-7 cells in presence of control IgM antibody (a) and 2F6 IgM (b) for 24 h.

[9] = target: T3, non-functional receptors on live PC3 cells (Homo sapiens, UniProt Q99572); experiment: Flow cytometry binding to PC3 cells; format: cell-based
T3 construct: endogenous in cells; host or cells: PC3 (human prostate tumour cells)
T3 sequence (Q99572 1-595): T2 sequence (Q99572 1-595)
Text: as §1
FIG. 20. A comparison was made with various preparations of recombinant 2F6 IgG2a to determine the relative binding strength of the WT formatted antibody to PC3 cells compared with the affinity matured Fabs. Rockland IgG2a #010-001-332 was used for control to determine background (diamond).
as §2

Molecule: Nc1ccn([C@@H]2O[C@H](CO)[C@@H](O)C2(F)F)c(=O)n1 [Gemcitibine, gemcitabine, reference compound]
- Caspase 3/7 activation [1]: activate caspases

Molecule: CNC(=O)c1cc(Oc2ccc(NC(=O)Nc3ccc(Cl)c(C(F)(F)F)c3)cc2)ccn1 [Sorafenib, reference compound]
- Mean Lung Surface Mets [2]: 0.1
- inhibition of lung metastases relative to PBS control [2]: 96%

B1: WT Fab: recombinant Fab of wildtype 2F6 expressed in E. coli (antibody, V domains shown)
VH: DVKLVESGGGLVKLGGSLKLSCAASGFTFSSYYMSWVRQTPEKRLELVAAINSNGGSTYYPDTVKGRFTISRDNAKNTLYLQMSSLKSEDTAFYYCTRHYSSRFFDVWGAGTTVTVSS
VL: MADIVMTQSQKFMSTSVGDRVSVTCKASQNVGTNVAWYQQKPGQSPKALIYSASFRYSGVPDRFTGSGSGTDFTLTISNVQSEDLAEFFCQQYNSYPFTFGSGTRLEIK
- binding compared with selected affinity matured leads ([3]; ELISA, Fab format): much lower (2-logs) binding
- EC50 (ELISA) ([3]; scale 0.01-12.5 ug/mL for IgM and IgG2a, 0.1-100 ug/mL for Fabs): very low EC50
- binding to live COLO205 cells [4]: bound weakly

B2: 2F6 IgM: hybridoma clone 2F6, mouse IgM with Kappa light chains, raised to P2X7 E200-300; CDR3 HYSSRFFDV (antibody, V domains shown)
VH: B1 VH
VL: B1 VL
modifications: IgM constant regions
notes: hybridoma clone 2F6, mouse IgM with Kappa light chains, raised to P2X7 E200-300; CDR3 …
- cell growth [5]: inhibited cell growth
- COLO205 growth ([6]; over 3 days, relative to control IgM): significantly inhibited
- COLO205 cells ([6]; over 5 days, even at low dose of 2.5 ug/mL): eliminated
- growth inhibition after pre-incubation of antibody with soluble peptide epitope ([7]; 10 ug/mL antibody, E200-300 peptide 500 ug/mL): no longer able to affect cell growth
- growth inhibition after pre-incubation of antibody with soluble peptide epitope ([7]; 10 ug/mL antibody, E200-300 peptide 5-50 ug/mL): no effect on the inhibition
- MCF7 cell growth ([7]; 10 ug/mL antibody, over 3 days): greatly inhibits cell growth
- MCF-7 cell growth ([7]; after 5 days of exposure): Total inhibition of cell growth
- Caspase 3/7 activation [1]: steady increase
- antibody concentration sufficient to initiate full caspase 3/7 (apoptosis) activity ([1]; Colo205, 3-day growth assay): 20 to 40 µg/mL
- cell death (confocal images) [8]: many cells are already dead

B3: 2F6 IgG2a: 2F6 VH and VL chains spliced into a mouse IgG2a sequence, expressed in HEK293 cells (antibody, V domains shown)
VH: B1 VH
VL: B1 VL
- cell growth [5]: inhibited cell growth
- cell growth inhibition compared with the IgM form ([5]; over 3 days): weaker cell inhibition
- binding to PC3 cells [9]: comparable to the binding elicited by the lead Fabs
